Ends that are not written are not given here.
T1: wild-type soluble CD40L fragment (residues 118-261) with no N-terminal KGD motif (human, UniProt P29965 118-261)
T1 construct: also called WT CD40L; WT sCD40L; not shown: His tag from the PET28a vector (Ni-NTA purification, anti-His detection)
T1 sequence: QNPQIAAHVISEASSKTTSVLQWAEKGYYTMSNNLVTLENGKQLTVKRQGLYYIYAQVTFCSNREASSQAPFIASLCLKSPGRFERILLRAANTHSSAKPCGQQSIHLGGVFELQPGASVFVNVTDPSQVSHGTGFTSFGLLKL

B1: site 2 peptide of integrin β3 fused to GST (peptide)
chain: QPNDGQSHVGSDNHYSASTTM
modifications: also: fused to GST, order not given here
notes: also called peptide from site 2 of β3; not shown: glutathione S-transferase fusion partner
B2: CD40L HIGMS1 mutant H224Y (soluble fragment) (ligand)
chain: QNPQIAAHVISEASSKTTSVLQWAEKGYYTMSNNLVTLENGKQLTVKRQGLYYIYAQVTFCSNREASSQAPFIASLCLKSPGRFERILLRAANTHSSAKPCGQQSIYLGGVFELQPGASVFVNVTDPSQVSHGTGFTSFGLLKL
notes: not shown: His tag from the PET28a vector (Ni-NTA purification, anti-His detection)
B3: CD40L HIGMS1 mutant G226A (soluble fragment) (ligand)
chain: QNPQIAAHVISEASSKTTSVLQWAEKGYYTMSNNLVTLENGKQLTVKRQGLYYIYAQVTFCSNREASSQAPFIASLCLKSPGRFERILLRAANTHSSAKPCGQQSIHLAGVFELQPGASVFVNVTDPSQVSHGTGFTSFGLLKL
notes: as for B2
B4: CD40L HIGMS1 mutant G227V (soluble fragment) (ligand)
chain: QNPQIAAHVISEASSKTTSVLQWAEKGYYTMSNNLVTLENGKQLTVKRQGLYYIYAQVTFCSNREASSQAPFIASLCLKSPGRFERILLRAANTHSSAKPCGQQSIHLGVVFELQPGASVFVNVTDPSQVSHGTGFTSFGLLKL
notes: as for B2
B5: CD40L HIGMS1 mutant L258S (soluble fragment) (ligand)
chain: QNPQIAAHVISEASSKTTSVLQWAEKGYYTMSNNLVTLENGKQLTVKRQGLYYIYAQVTFCSNREASSQAPFIASLCLKSPGRFERILLRAANTHSSAKPCGQQSIHLGGVFELQPGASVFVNVTDPSQVSHGTGFTSFGSLKL
notes: as for B2
B6: CD40L HIGMS1 mutant Q174R (soluble fragment) (ligand)
chain: QNPQIAAHVISEASSKTTSVLQWAEKGYYTMSNNLVTLENGKQLTVKRQGLYYIYARVTFCSNREASSQAPFIASLCLKSPGRFERILLRAANTHSSAKPCGQQSIHLGGVFELQPGASVFVNVTDPSQVSHGTGFTSFGLLKL
notes: as for B2
B7: CD40L HIGMS1 mutant T176I (soluble fragment) (ligand)
chain: QNPQIAAHVISEASSKTTSVLQWAEKGYYTMSNNLVTLENGKQLTVKRQGLYYIYAQVIFCSNREASSQAPFIASLCLKSPGRFERILLRAANTHSSAKPCGQQSIHLGGVFELQPGASVFVNVTDPSQVSHGTGFTSFGLLKL
notes: Printed as T1761, read as T176I; also called T1761 (so in the source); not shown: His tag from the PET28a vector (Ni-NTA purification, anti-His detection)
B8: CD40L G252E mutant (soluble fragment) (ligand)
chain: QNPQIAAHVISEASSKTTSVLQWAEKGYYTMSNNLVTLENGKQLTVKRQGLYYIYAQVTFCSNREASSQAPFIASLCLKSPGRFERILLRAANTHSSAKPCGQQSIHLGGVFELQPGASVFVNVTDPSQVSHGTEFTSFGLLKL
notes: Mutant of the soluble CD40L fragment; also called dnCD40L; CD40L decoy; not shown: His tag from the PET28a vector (Ni-NTA purification, anti-His detection)
B9: CD40L H224E/G226E mutant (soluble fragment) (ligand)
chain: QNPQIAAHVISEASSKTTSVLQWAEKGYYTMSNNLVTLENGKQLTVKRQGLYYIYAQVTFCSNREASSQAPFIASLCLKSPGRFERILLRAANTHSSAKPCGQQSIELEGVFELQPGASVFVNVTDPSQVSHGTGFTSFGLLKL
notes: as for B8
B10: CD40L Y170E mutant (soluble fragment) (ligand)
chain: QNPQIAAHVISEASSKTTSVLQWAEKGYYTMSNNLVTLENGKQLTVKRQGLYEIYAQVTFCSNREASSQAPFIASLCLKSPGRFERILLRAANTHSSAKPCGQQSIHLGGVFELQPGASVFVNVTDPSQVSHGTGFTSFGLLKL
notes: Mutant of the soluble CD40L fragment; also called Y170 to E; dnCD40L; not shown: His tag from the PET28a vector (Ni-NTA purification, anti-His detection)

Target: T1, wild-type soluble CD40L fragment …
Assay: ELISA-type: immobilized CD40L, site 2 peptide fused to GST, bound GST measured

Question: Does B1 bind?
Answer: binds

Target: T2, CD40 fragment (residues 21-144) fused to GST (UniProt P25942 21-144)
T2 construct: range 21-144; Made in E. coli BL21 from PGEX2T (BamHI/EcoRI), purified on glutathione-sepharose; also called CD40 fused to GST; not shown: glutathione S-transferase encoded by the PGEX2T vector
T2 sequence (P25942 21-144): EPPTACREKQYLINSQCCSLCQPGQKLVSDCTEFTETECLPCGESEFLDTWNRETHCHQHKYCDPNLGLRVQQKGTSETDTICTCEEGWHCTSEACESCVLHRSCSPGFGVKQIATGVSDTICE
Assay: ELISA-type CD40 binding (as for FIG. 11)

Question: Does B2 bind?
Answer: binds

Question: Does B3 bind?
Answer: binds

Question: Does B4 bind?
Answer: binds

Question: Does B5 bind?
Answer: binds

Question: Does B6 bind?
Answer: binds

Question: Does B7 bind?
Answer: binds

Target: T2, CD40 fragment (residues 21-144) fused …
Assay: ELISA-type: immobilized CD40 (21-144)-GST, CD40L mutant in solution

Question: Does B8 bind?
Answer: binds

Question: Does B9 bind?
Answer: binds

Question: Does B10 bind?
Answer: binds

Source: patent US20220135649A1 (University of California, published 2022)
